This note sets out measurements from patent publication US20240026407A1, “MODIFICATION OF SAPONINS” (GLAXOSMITHKLINE BIOLOGICALS SA, priority 2020, published 2024).

The labels stand for the following.
B1: 1001 (protein, listed as Brachybacterium faecium)
chain: MNSAPASPADTPSAGAGRPAAQLQDALAITAVEDTGRLPQLVHTVTLAQPRDQVRRAELLATAHGLYEMRIGGAPATESVLNPGWTTYERRLQVQRLDVTAQVRQRPEGLAAADADRLDLEATLADGWWRGDLGFDGGVRYGDDLALLAAVEIEFADGTRQRVVTDESWRSRPSAIMSANIYHGQHEDRRLGLGPETPVRVVEIDRSTLVEQVSPPVLRHESRRPERIWTSPAGRTLVDFGQNLVGWLRFTVTGPEGTEIVLRHAEVLEDGELGTRPLRAARATDRLVLAGDPAGETFEPTFTFHGFRYAEISGWPGELAAEDLEAVVVHSALRRTGWFECSHAGVNQLISNSLWSQRGNFLSVPTDCPQRDERLGWTGDIAAYAATAAFQHDVGDFLHGWLLDLGQEARMNPHGIVPFVVPDLLKPGLGAGDPAAADEGWGTPTAIWGDAAVWVAEALWTAYGDLDRLRAHYPAMVRHLDSVDRALSPSGLWDTGFQFGDWLDPDAPPEAADRAKADKGVVATACLVRSARFAAQAARLLGEEVDARRWQGLAERTLAAFTTAYVHENGTITSDCATVYALAIAFDLLDAGTRPRAAARLAEVVAEAGHRVSTGFAGTPFVTWALSETGHVEEAYRLLLEEGCPSWLYPVSMGATTIWERWDSMLPDGSINPGEMTSFNHYALGAVADWVYQVVLGVRPAAPGYRRIRIQPVPGPGIEWAEGAHDSAAGRIEVSWEHSADGLRGTATIPEGAEAEIVLPDGRARTVGPGRHSF
B2: 1075 (protein, listed as Asticcacaulis sp.)
chain: MTRLNRRHFLAASGLAATVAPTMSRSKTLAKTALGVTDLRAEQSENLLGTQAREPRLSWRLTGTERGIMQAGYRLRAGSKPGTADLWDSGNIASDACFDIPYKGKPLNAMQRVWWTVEVRDAKGRTATSAPAWFETGLLAPGDWKAQWIVAEDALAEGDRKAGLQWIWSEKALDNRLHAFRLDFDVPANLASSEVLIAGKDWIRGVWANGEQLPTPDQLVPNWGTLVPVPAKLKPGKNSVCVLVQAETTGFFPVDGGAFAALIRLRLSDGTIKRLVSDTNWKVRPLPPEAWTTADFDASGWVRAQKSGADAQNDPRPAEPAMLLRKAFTPAKKVVNARLYATALGAYEARLNGQPVSTAKMAPEISVTKDHIYYQTYDVTKLIRAGDNALGVVMGDGFYASAFGWRLERYGFGPAPRRLLAQLRLDYADGTSEWIVTDDSWRIGQSPIVTSEIYDGEVFDARLKTDGWDKTGFNAARWPAVRLGQAPHTKIVAQTGPLLVPVSKRRGTITQPKPGIYVIDFGQNFAGWARLNVKGTSGHTVTLKFAEYLKADGEVDQANLRMAKCRDIYTLRGDAGGETFEPSFTYHGFRYVQVENFPGVPTPADIEGIVVTSYCRETGRMTFDDPIIQKFWQNSVWSQRSNFFMVPTDCPQRDERMGWMGDIQVFLDAATFNMECDPFIRRYLDEVRASQTAEGAFPIVCPQPESFPEVTTAGWSEAGVILPWTLWRRYGDTAVIDENWVAMTKWMDYLFKYNPDYVWRKERGLDLGDWLSVDAVKPDDETTPRILCATGYWAYCADLMTQMAAATGREAEAAKYREVRAKIGAAFAKEFVDKDGKAGNGSQTSQILALYFNLVPAERRAAAGEILAKEIRGRGMKLSTGFLGTPYLLDVLADTGHLEEVSGLLKQREKPSWGYMPLKGATTMWERWDGDTGDLAMNSYNHYAYGAVCGFMYRRLAGLAPAAPGFRKMTVEPIYLPHVGKVTANYESCLGTMAGAVTGNASGLKTYDLTVPPNAVAEVILPDGAWREGGKALTGHADIRALRRDSGKVRFEVGSGSYRFKI
B3: 1055 (protein)
chain: MRKAMILLTACLLSGTSALAADTLRDGFQTPPDSAKPRVWWHWLGNNVTADGIDKDLAWMRRVGIGGFQLFSGNLETPLLVDKPVVVFSPEWRAMVRHAAERADALGLEMTMAASAGWSETGGPWVKPEQAMKKLVWSETVITGAKRFQGRLPSPPTGNGPFQDMPMPPELRLPPPPPVPGARPRPPAAAHGPSPSYYADVAVVAYRLPDAVVPLGSLKPRISSSAGDAAILSDGRYDAPLRLEQKTPDGQLAWVEYTFDKPVSLPAVTLAATIEDPLNALSPSGVVEVADENGTFRDLVRVAPQEPVAFPAAAPVRTVALPEASSRRWRFRLDPIPPQALALPGMPQQTVHAVTELRFETEAMVDRWQAKAAYDTMRSYDTGPQPVRPVPARDQVVNLTARIGADGTLDWTPPPGRWQVLRIGYSLTGAKNHPADPEGTGFEVDKLDAAAVRAYLEGYLGPIDQALGDLRGAKGLKNLLTDSWEAGQANWTPALPAEFKRRRGYDLTPWLPVLTGRVVGSAADSERFLWDFRRTIADLLAEAHYKTIRDFAHEKGLGYYGEAMGTRLPTTGDGLLNKRYTDIPMGEFWQMPPGAPSDPAHTSDIAEAASAAHFYGQNLVAAEAFTALPFMPPFTATPAALKPFADRFLARGVNRFVIHTSVHQPSDDLRPGITLGPFGQYFTRHETWAEQAGAWMSYLSRSSYLQQQGRHVADIAWFVGEGGAISAPDPDRLSPALPKGYRLDFVARDAVTELLSVKDGHLLAPSGVVYRLLVVPPDARSGDLKLSLAVLRRLRDLLNQGAAVLAPRPTGSTSLSDDPAQVAALIGELWGVDTPIPRSIGKGRLYPAPDIAAALADRGVAPDLTMAGAMDADIVWSHRRTDDADIWFVANQKDRAESVTLSLRGDGRDVSLWHADSGAVEPAPFRQEAGRTSVPLTLSPNQAIFIVQRGSAPATARDVATPVEAESLALSGVWTLFFPKGQAMPDSVPLPKLGLWNDMSDPAVRHFSGTATYATEVKLPAAWAGKPVWIDLGAVHEVATVRVNGTEAGIAWKQPYRIDVGPLLKAGTNKLEVAVSNLWPNRIVGDAGGAGGVRVTTNTHPLLHPDTKARLLPSGLAGPVRLVRMELPGGNG
modifications: alpha proteobacterium
B4: 999 (protein, listed as Prevotella ruminicola)
chain: MRKFLTIICVACCYASATFAQAWPQPKPEAKPGTRWWWLGSAVNQRDLQWNLQEYARAGIGAVEITPIYGVKGNDANNIAYLSPQWMQALQSVQDIARPLGIEVDMNCGTGWPFGGPHISLDQAACRAIIKDTIINGKHQYEVEIGHTKQKVKRAAPGGEGWVVDHFDRNAVAHYLDRFEQAFATSGVPYPHTFFNDSYEVYKADWTPTLFDEFQKRRGYDLRTKLPELLGKVDDGNQTLADYRETLSDMLLENFTQQWVAWAHKHGVKVRNQAHGSPANLLDLYAAVDIPEIEGFGLSEFGIKGLRTDPGKTRKNDSDVSMLKYASSAAHVMGKPFTSSETFTWLTEHFRTSLSQMKPDLDLMFTCGVNHVYFHGSCYTPQNAAWPGWKFYASVDMSPTNSIWRDAPFLMKYIERSQSFLQLGEPDNDFLVYLPVRDMWHQRDNNNTLLMQFDIHSMAKKAPQFIRSILTIDSLGYDCDYISDRQLAKVRMQDGMLVTEGGTRYKALIIPSGTTIDASLQAQINRLNAYVIRGEQAADMAKFAKAEQMKTTYGLRAIRRHTADGWHYFIVNLTPKDITGDVTLAVPFESATWFNPMNGDIQPAEVHNGQLHIALKSGESRILQTSNQPSTNITTTASGTEEITLQGPWVLSFTDESPRVEGTFKLNKLQTWETLSDSAAVTMGTGVYTTSIKLSAQQAKQHWQIDLGDVRESARVYINSQFVGCAWAVPFILDCGNTLHKGKNEIRIEVTNLPANRIAELDRKGVQWRKFNEINVVDINYKNTTYADWKPVPSGLNTTVKLVR

The nature of the first assay: Experiment 6-1: screening of rhamnosidases for derhamnosylation of saponins in treated bark extract (2%), QS-17 2296 to QS-18 2150 (PAR %). Type of assay: biochemical, Quillaja saponaria. As to conditions: TBE 2%, pH 7.5, 30 degC, 18 h; TIC peak area ratio percent of rhamnosylated starting saponin to derhamnosylated product, LCMS/MS; negative controls 4.876, 5.225.
As for B1, the “QS-17 (PAR %)” value was 0.075%.

Consider B2, for which the “QS-17 (PAR %)” value came to 0.043%.

On to B3, for which the “QS-17 (PAR %)” value is 0.019%.

On to B4, for which the “QS-17 (PAR %)” value worked out at 5.614%.

Another assay is described as follows: Experiment 6-3: screening of rhamnosidases for derhamnosylation of saponins in crude bark extract (80%), relative % of Left, Middle and Right Peak by UV HPLC. The format is biochemical, Quillaja saponaria. As to conditions: CBE 80%, pH 7.4, 30 degC, 19.5 h, mainly QS-17 family, negative control 27%. Here is the method: Selected variants were expressed and lysed as in the method of experiment 6-1.
Crude bark extract (CBE) solution was adjusted to pH 7.4 by addition of NaOH (2M). 20 uL clarified lysate was transferred into fresh 96 well PCR plates. 80 uL CBE solution (pH 7.4) was added to each well of lysate to a final concentration of 80%. Plates were incubated at 30 degC with shaking for 19.5 h.
Quenched with 100 uL MeCN+2% AcOH and shaken at room temperature for 10 mins prior to centrifugation (10 min, 4 degC) to remove particulates. Samples were analysed by UV HPLC using method of Experiment 4-4.
Three key peaks of interest are apparent using this chromatography: Left Peak (retention time approximately 2.30-2.35 min) comprising mainly QS-17 family components; Middle Peak (retention time approximately 2.37-2.42 min) comprising mainly QS-18 family components and desglucosyl-QS-17 family components; and Right Peak (retention time approximately 2.44-2.50 min) comprising mainly QS-21 family components. Peak identity was supported by MS/MS.
Enzyme mediated hydrolysis of the alpha-O-rhamnosylation at the C2 position of the arabinofuranose moiety of QS-17 family components leads to a decrease in Left Peak and an increase in Middle Peak due to formation of QS-18 family components. Enzyme mediated hydrolysis of the alpha-O-rhamnosylation at the C2 position of the arabinofuranose moiety of desglucosyl-QS-17 family components leads to a decrease in Middle Peak and an increase in Right Peak due to formation of QS-21 family components.
The relative percentage of each peak was determined. A decrease in Left Peak and a concomitant increase in Middle Peak and Right Peak is observed for enzymes active under these conditions.
Consider B1, for which the “Left Peak” value came out at 31%.

Take B2: the “Left Peak” value was 26%.

As to B3, the “Left Peak” value came out at 25%.

The assay is the same for the next values; noted with them: CBE 80%, pH 7.4, 30 degC, 19.5 h, mainly QS-18 and desglucosyl-QS-17 family, negative control 48%.
On to B1, for which the “Middle Peak” value is on record as 45%.

For B2, the “Middle Peak” value was found to be 47%.

Regarding B3, the “Middle Peak” value is on record as 48%.

Staying with this assay, now noted: CBE 80%, pH 7.4, 30 degC, 19.5 h, mainly QS-21 family, negative control 26%.
Turning to B1, the “Right Peak” value is 24%.

B2: the “Right Peak” value is 27%.

Regarding B3, the “Right Peak” value is on record as 27%.

Another assay can be described thus: Experiment 6-2: screening of rhamnosidases for derhamnosylation of saponins in treated bark extract (25%), relative % of Left, Middle and Right Peak by UV HPLC. The format is biochemical, Quillaja saponaria. As to conditions: TBE 25%, pH 7.4, 19.5 h, mainly QS-17 family, negative control 24%.
In the case of B1, the “Left Peak” value was 14%.

In the case of B2, the “Left Peak” value came out at 9%.

With B3, the “Left Peak” value is 7%.

Staying with this assay, now noted: TBE 25%, pH 7.4, 19.5 h, mainly QS-18 and desglucosyl-QS-17 family, negative control 50%.
With B1, the “Middle Peak” value stood at 59%.

In the case of B2, the “Middle Peak” value came out at 61%.

As for B3, the “Middle Peak” value is 62%.

The assay is the same for the next values; noted with them: TBE 25%, pH 7.4, 19.5 h, mainly QS-21 family, negative control 26%.
Consider B1, for which the “Right Peak” value is 27%.

For the molecule B2, the “Right Peak” value is 30%.

Take B3: the “Right Peak” value worked out at 31%.

The next assay can be described thus: Experiment 6-1: screening of rhamnosidases for derhamnosylation of saponins in treated bark extract (2%), desglucosyl-QS-17 2134 to QS-21 1988 (PAR %). The format is biochemical, Quillaja saponaria. As to conditions: TBE 2%, pH 7.5, 30 degC, 18 h; TIC peak area ratio percent, LCMS/MS; negative controls 2.719, 2.158.
As to B1, the “Peak75 (PAR %)” value is on record as 0.137%.

B2: the “Peak75 (PAR %)” value was 0.000%.

Consider B3, for which the “Peak75 (PAR %)” value stood at 0.000%.

As to B4, the “Peak75 (PAR %)” value stood at 2.571%.

The nature of the next assay: Experiment 6-1: screening of rhamnosidases for derhamnosylation of saponins in treated bark extract (2%), QS-17 2310 to QS-18 2164 (PAR %). The format is biochemical, Quillaja saponaria. As to conditions: TBE 2%, pH 7.5, 30 degC, 18 h; TIC peak area ratio percent, LCMS/MS; negative controls 3.061, 2.429.
On to B1, for which the “Peak57 (PAR %)” value is recorded as 0.000%.

In the case of B2, the “Peak57 (PAR %)” value is recorded as 0.000%.

B3: the “Peak57 (PAR %)” value was 0.000%.

On to B4, for which the “Peak57 (PAR %)” value worked out at 2.714%.

The next assay is described as follows: Experiment 6-1: specificity of rhamnosidases towards other rhamnose residues (C3 saccharide rhamnose, C28 saccharide rhamnose). Type of assay: biochemical, Quillaja saponaria. The following applies: TBE 2%, pH 7.5, 30 degC, 18 h; LCMS/MS; negative controls 0.18, 0.17.
As for B1, the “ratio PP/QS-21” value was 0.19.

B2: the “ratio PP/QS-21” value amounted to 0.18.

For the molecule B3, the “ratio PP/QS-21” value was 0.19.

On to B4, for which the “ratio PP/QS-21” value was 0.16.
